According to paper PMC4619145 (Virology, 2015):

Tests used:
[1] = target: T1, DENV-2 envelope glycoprotein E domain III (DIII), wild type, displayed on M13 phage (Dengue virus 2, Jamaica/1409/1983); assay: ELISA
T1 chain: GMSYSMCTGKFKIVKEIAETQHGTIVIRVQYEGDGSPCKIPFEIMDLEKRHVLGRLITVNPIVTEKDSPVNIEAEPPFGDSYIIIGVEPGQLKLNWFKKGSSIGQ

[2] = target: T2, DENV-3 envelope glycoprotein E domain III (DIII), wild type, displayed on M13 phage (Dengue virus 3, Thailand/PaH881/1988); assay: ELISA
T2 chain: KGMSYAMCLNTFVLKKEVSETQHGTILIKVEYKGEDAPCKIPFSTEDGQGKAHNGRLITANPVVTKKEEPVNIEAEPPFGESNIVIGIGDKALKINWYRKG

B1: monoclonal antibody 4E11 (IgG) (antibody, V domains shown)
VH: VKLLEQSGAELVKPGASVRLSCTASGFNIKDTYMSWVKQRPEQGLEWIGRIDPANGDTKYDPKFQGKATITADTSSNTAYLHLSSLTSGDTAVYYCSRGWEGFAYWGQGTLVTVSA
VL: ELVMTQTPASLAVSLGQRATISCRASENVDRYGNSFMHWYQQKAGQPPKLLIYRASNLESGIPARFSGSGSRTDFTLTINPVEADDVATYFCQRSNEVPWTFGGGTKLEIK
- binding result [1]: binds
- binding result [2]: binds
